The nanobody polyreactivity screen of Harvey et al. (2022)

Test: yeast display, Sf9 membrane polyspecificity reagent, FACS + sequencing; frameworks hold sequencing errors
Outline: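 Using colony PCR, genes from sorted yeast display clones were amplified, then sequenced on MiSeq at 2 × 250 and filtered by CDR length. The clones had been stained with 10% biotinylated, detergent-solubilized Sf9 membrane reagent for 1 hour at 4 °C and sorted by FACS into low and high (top ~1%) gates on anti-HA and streptavidin fluorescence. Polyreactivity labels come from the gate of origin.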

Sequence	polyreactivity (PSR sort gate)
QVQLVESGGGLVQAGGSLRLSCAASGSIFRYYVMGWYRQAPGKERELVAAISSGGRTYYADSVKGRFTISRDNAKNTVYLQMNSLKPEDTAVYYCAAGEPTRGDYWGQGTQVTVSS	high polyreactivity
QVQLVESGGGLVQAGGSLRLSCAASGRTFGSYVMGWYRQAPGKERELVAAISSRGTRTYYADSVKGRFTISRDNAKNTVYLQMNSLKPEDTAVYYCAAEWPYRFQYGEMDYWGQGTQVTVSS	high polyreactivity
QVQLVESGGGLVQAGGSLRLSCAATGSIFDYNAMGWYTQAPGKERELVAALTSGGSTNYADSVKGRFTISRDNAMNTVYLQMNSLKPEDTAVYYCAADHDYYPSNLDYWGQGTQVTVSS	low polyreactivity
QVHLVESGGGLVQAGGSLRITCAASGRIFWSYAMGWYRQAPGKEMELVAAITWSGGSTYYADSVKGRFTISRDNAKNTVYLQMIRLKPEDTAVYYCNAATGQPVGLDYWGQGTQVTVSS	low polyreactivity
QVQLVESGGGLVQAGGSLRISCAASGSIFHDNAMGWYRQAPGKERELVAASTTSGGNTYYADSVKGRFTISRDNAKNTVYLLMNSLKPEDTAVYYCAAGQSVFASWLDNGWSAYTYYYWGQGTQVTVSS	low polyreactivity
QVQLVESGGGLVQAGGSLRLSCAASGRTFLVYAMGWYRQAPGKERELVAAISFSDGITYYADSVKGRFTISRDNAKNTVYIQMNSLKPEDTAVYYCATEILDYYYGSEYDYWGQGTQVTVSS	high polyreactivity
QVQLVESGGGLVQAGGSLRLSCAAYGRNFTYYAMGWYRQAPGKERELVAANSRSGGRTYYADSVKGRFTISRDNAKNTVYLQMNSLKPEDTGVYYCAADRLSLRAYDYWGQGTQVNVSS	high polyreactivity
QVQLVESGGGLVQAGGSLRLSCAASGSTFLRYTMGWYRQAPGTERELVAAISPSAGSTYYADSVKGRFTISRDNAKNSVYLQMNSLTPEDTAVYYCAAKRGSVSRPDYGANDESWGQGTQVTVSS	high polyreactivity
QVQLVESGGGLVQAGGSLRLSCAASGSIFGRYAMGWYRQAPGKEREFVSAISSSGGRTYYADSVKGRFPISRDNAKNTVYLQMNSLKPEDTAVYYCATEGYYSRTRLYLEYDYWGQGTQVTVSS	high polyreactivity
QGQIVESWGGLVQAGGSLRLSCAASGTFFTYMGWYRQAPGKERELVAAIRNGGSTNYADSVKGRCTISGDNAKNTVYLQMHSLKPEDTAVYYCAARVTYSRGYRGGSRTKYDSWGQGTQVTVSS	low polyreactivity
QVQLVESGGGLVQAGGSLRLICAASGSTFDQNVMGWYRQAPGKDRELVGTINFSGDSTYYADSVKGRFTISRDNAKNTVYLQMNSLKPEDPAVYYCAVDWGEYIDTSVKRDISYYWGQGTQVTVSS	low polyreactivity
QVQLVESGGGLVQAGGSLRLSCAASGSTFPLYAMGWYRQAAGKEWELVAAITSGGGNTYYADSVKGRFTISRDNAKNTVYLQMNSLKPEDTAVYYCAAVGGYKSYYSYEYDYWGQGTQETVSS	low polyreactivity
QVQLVESGGGLVQAGGSLRLSCAASGGIFWNYAMGWYRQAPGKERELVAVINTGGRTYYADSVKGRFTISRDNAKYTVYLQMNSLKPEDTAVYYCAAKDFTIHYDYWGQGTQVTVSS	high polyreactivity
QVQLVESGGGLVQAGGSLRLSCAASGSTFLSYAMGWYIQAPGKEREFVAAIPSIVGSTYYADSVKGRFTISRDNAKNTVYLQMNSLKPEDTAVYYCATDSYPGLNPDFDYWGQGTQVTVSS	low polyreactivity
QVQLVESGGGLLQAGGSLRLSCAASGSTFDYYVMGWYRQAPGKERELVAAISHNAGSTYYADSVKGRFTISRDNAKNTVYLQMNSLKPEDTAVYYCAAPDYRNGVRYPLDYWGQGTQVTVSS	low polyreactivity
QVQLVESGGGLVQAGGSLRLSCAASGSIIKPYAMGWYRQAPGKERELVAAIRSSGGRTNYADSVKGRFTISRDNAKNTVYLQMNSLKPEDTAVYYCAKRYYGRKYYYWGQGTHVTVSS	high polyreactivity
QVQLVESGGGLVQAGGSLRLSCAASGSIFTQYVMGWYRQAPGKERELGAAITWSGGNTYYADSVKGRFTISRDNAKNTVYLQMNSLKPEDTAVYYCAAYKPYSKYNYWGQGTQVTVSS	high polyreactivity
QVQLVESGGGLLQAGGSLRLSCAASGIIFRGYSMGWYRPAPGKERELVASITRRGGSTRYADSVKGRFTISRDNAKNTVYLQMNSLKPEDTPVYYCAAVGVGKTSTAYGYWGQGTQVNVSS	high polyreactivity
QVQLVESGGGLVQAGGSLRLSCAASGRTFYWNAMGWYRQAPGKERELVAAISWRGGSTYYADSVKGRFTISRDNAKNTVYLQMNSLKPEDTAVYYCAAYHSREYDYWGQGTQVTVSS	high polyreactivity
QVKLVESAGGLVQAGGSLRLSCPASGSTFPKYPMGWSRQEPGKERELVAAITWRGGSTYYADSVKGRFTISRDNAKNTVYLQMISLNPEDTAVYYCAAVPYYPSRMDYWGQGTQVTVSS	low polyreactivity
QVQLVESGGGLVQAGGSLRLSCAASGGTFYRNAMGWSRQAPGKERELVAAINYRGDRTYYADSVKGRFTISRDNAKNTVYLQMNSLKPEDTAVYYCAADSYPAYLGFVGFDYWGQGTQVTVSS	low polyreactivity
QVQLVESGGGLVQAGGSLRLSCAASGLTFAWYAMGWYRQAPGKARELVAVISNGGSTNDADSVKRRFTISRDNAKNTVYLQMNSLKPDDTAVYYCAAGWVWSGNDYYYWGQGTQVTVSS	low polyreactivity

Sequence	polyreactivity (PSR sort gate)
QVQLVESGGGLVQAGGSLRLSCAASGYIFDKNAMGWYRQAPGKERELVAAITSSGGRTYYADSVKGRFTISRDNAKNTVYLQMNSLKPEDTAVYYCNKLYRTSGEYVYWGQGTQVTVSS	high polyreactivity
QVQLVDSAGGLVQAGGSLRLSCAASGSIFFRYAMGGYRQAAGKERELVAAITQRTGSTYYADSVKGRFTISRDNAKITVYLQMNSLKPEDTAVYYCAAKRWRRSFTGNYWGQGTQVTVSS	high polyreactivity
QVQLVESGGGLVQAGGSLRLSCAASGSTLIRNVMGWYRQAPGKESELDAAITWSGASTYYADSVKGRFTISRDNAKNTVYLQMNSLKPEDTAVYYCAARALNWSRVARYNYWGQGTQVTVSS	high polyreactivity
QVQLVESGGGLVQAGGSLRLSCAASGRTLYSNAMGWYRQSPGKERELVAAISSRGGRTYYADSVKGRFTISRDNAKNTVYLQMNSLKPVDTAVYYCNAAYGTGRRQAKSDYWGQGTQVTVSS	high polyreactivity
QVQLVESGGGLVQAGGSLRLSCAASGLTFSDYAIGWYRQAPGKEREFVAAITRNGGSTRYADSVKGRFTFSRDNAKNTVYLKMNRLKPEDTAVYYCATDVGFGRKQRPHRPGYGYWGQGTQVTVSS	low polyreactivity
QVQLVESGGRLVQAGGSLRLSCAASGRTFHKNAMGWYRQAPGKERELVAAISGSGGSTYYADSVKGRFTISRDNAKNTVYLQMNSLKPEDTAVYYCAADSSYYEEDYWGQGTHVTVSS	high polyreactivity
QVQLVESGGGLVQAGGSLRLSCAASGIIFYGYAMGWYRQAPGKERELVAAITYSGGSTYYADSVKGRFTISRDNAKNTVYLQMNSLKPEDTEVYYCAAYDAYSPYQALYDYWGQGTQVTVSS	low polyreactivity
QVQLVESGGGLVQAGGRLRLSCAASGIIFDTYVMGWYRQAPGKERELVAAITRSGGRTRYADSVKGRFTISRDNAKNTVYLQMNSLKPEDTAVYYCAARIPDRQDGYGYWGQGTQVTVSS	high polyreactivity
QVQLVESGGGLVQAGCSLRLSCAASGSTFWFNGMGWYRQAPGKERELVAVITFSTGSTSYADSVKGRFTISRDDAKNTVYLQMNSLKAEDTAGYYCAAEYVIYYCFEWLDLDYWGQGTQVTVSS	high polyreactivity
QVQLVESGGGLVQAGGSLSLSCAASGGIFQVNSMGWYRQATGKEREVLAAISWSVGRTYYADSVKGRFTISRDNAKNTVYLQMNSLKPEDTAVYYCARYGKRGYYYWGQGTQVTVSS	low polyreactivity
QVQLVESGGGLVQAGGSLRLSCAASGSIFYNYAMGWYRQAPGKERELVAAISSNGGSTYYADSVKGRFTISRDNAKNTVYLQMNSLKPEDTAVYYCAKYLSPGERHSYDYWGQGTQVTVSS	high polyreactivity
QVQLVESGGGLVQAGGSLRLSCAASGFIFTQNAMGWYRQAPGKERELVAVIRWNGGSTYYADSVKGRFTISRDNAKNTVYLQMNSLKPEDTEVYYCAAEFLWIVDYWGQGTQVTVSS	low polyreactivity
QVQLVESGGGLVQAGGSLRLSCAASGFTFTRNAMGWYRQAPGKERELVAAISKSGGRTYYADSVKGRFTISRDNAKNTVYLKMNSLKPEDSAVYYCAVVPRPFGLGSDYDYWGQGTQVTVSS	high polyreactivity
QVQLVESGGGLDQAGGSLRLSSAASGSIFLPNAMGWYRQAPGKEREFVADISWTGGRTYYADSVKGRFTISRDNAKHTVYLQMNRLKQEDTAVYYCAAKQYRYGLDYWGQGTQVTVSS	high polyreactivity
QVHLVESGGGLVQAGGSLRLSCAASGSIFLRYAMGWYRKAPGKERVLFAGITSSGGSTYYADSVQGRFTISRDNAKNTVYLQMNSLKPEDTAVYYCARGLYRIYSPVRYGYWGQGTQVTVSS	high polyreactivity
QGKRVESGRGLVQAGGILRLSCAASGRTFYYYAMGWYRQSPGKERELVASITWSGGSTYYADSVKGRFTISRDNAKNTVYLQMNSLKPEDTAVYYCAARFVYYGVDYWGQGTQVTGSS	high polyreactivity
QVQLVESGGGLVQAGGSLRLSCAASGLIFHNNAMGWYRQAPGKERELVARITRSCGSTYYADSVKGRFTISRDNAKNTFYLQMNSLKPEDTAVYYCATDALFDSGGMDYWGQGTQVTVSS	low polyreactivity
QVQLVESGGGLVQAGGSLRLSCAASGRTFHVYAMGWYRQAPGKEREFVAFISRRGGSTYYADSVKGRFTISRDNAKNTVYLQMNSLKPEDTAVYYCKARYVTSRSAYQRGGDYWGQGTQVTVSS	high polyreactivity
QVQLVESGGGLVQAGGSLRLSCAASGFIFGYYAMGWYRQAPGKERELVAAINKNGGSTYYADSVKGRFTISRDNAKNTVYLQMNSLKPEVTAVYYCAARARGYAWTYDYWGQGTQVTVSS	high polyreactivity
QVQLVESGGGLVQAGGSLRLSCAASGFIFYYYAMGWYRQAPGKVRELVAGITATGGSTYYADSVKGRFTISRDNAKNTVYLQMNSLKPEDTAVYYCAAEHGRRATYTWWVIYDYLGQGTQVTVSS	low polyreactivity
QVQLVESGGGLVQAGGSLRLSSAPSGSIFWGYAMGWYRQAPGKERELVATIRNRGGSTYYADSVKGRFTISRDNAKNTVYFQMNSRKPDDTAVYYCAAVSYRQYYGWGNYWGQGSQVTVSS	low polyreactivity
